The RNAGym collection of RNA variant scans (doi:10.1093/nar/gkz1192)

B1: CPEB3 Ribozyme (parent)
chain: UAACAGGGGGCCACAGCAGAAGCGUUCACGUCGCAGCCCCUGUCAGAUUCUGGUGAAUCUGCGAAUUCUGCUGUAUAUCUC

Variants of: B1
Test: self-cleavage, relative activity (ratio to wild type); higher = more cleavage; in vitro, sequencing
Summary of the method: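 Barcoded CPEB3 ribozyme mutants, produced by rounds of error-prone PCR, self-cleaved while being transcribed with T7 RNA polymerase for 5 hours at 37°C and during a subsequent 15 min DNase I step before EDTA was added. Sequencing of template-switched cDNA on Illumina gave cleaved and total reads, and DNA sequencing assigned barcodes to variants. Each variant's relative activity is its cleaved/total read fraction divided by the unmutated ribozyme's fraction, averaged across three batches. A variant needed a minimum of 5 reads.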

Variant | self-cleavage
UAUUAGGGGGCCACAGCAGAAGCGUUCACGUCGCAGCCCCUGUCAGAUUCUGGUGAAUCUGCGAAUUCUGCUGUAUAUCUC [A3U C4U] | 1.17
UAUAAGGGGGCCACAGCAGAAGCGUUCACGUCGCAGCCCCUGUCAGAUUCUGGUGAAUCUGCGAAUUCUGCUGUAUAUCUC [A3U C4A] | 1.22
UAUCAGGGGGCCACAGAAGAAGCGUUCACGUCGCAGCCCCUGUCAGAUUCUGGUGAAUCUGCGAAUUCUGCUGUAUAUCUC [A3U C17A] | 0.26
UAUCAGGGGGCCACAGUAGAAGCGUUCACGUCGCAGCCCCUGUCAGAUUCUGGUGAAUCUGCGAAUUCUGCUGUAUAUCUC [A3U C17U] | 0.5
UAUCAGGGGGCCACAGGAGAAGCGUUCACGUCGCAGCCCCUGUCAGAUUCUGGUGAAUCUGCGAAUUCUGCUGUAUAUCUC [A3U C17G] | 0.53
UAUCAGGGGGCCACAGCAGAAGCGUUCACGUCGCAGCCCCUGUCAGAUUCUGGUGAAUCUGCGAAUUCUGCUGUGUAUCUC [A3U A75G] | 1.06
UAGCAGGGGGCCACAGCAGAAGCGUUCACGUCGCAGCCCCUGUCAGAUUCUGGUGAAUCUGCGAAUUCUGCUGUAAAUCUC [A3G U76A] | 1.23
UAGCAGGGGGCCACAGCAGAAGCGUUCACGUCGCAGCCCCUGUCAGAUUCUGGUGAAUCUGCGAAUUCUGCUGUACAUCUC [A3G U76C] | 1.15
UAUCAGGGGGCCACAGCAGAAGCGUUCACGUCGCAGCCCCUGUCAGAUUCUGGUGAAUCUGCGAAUUCUGCUGUAUAUCUC [A3U] | 1.06
UAGCAGGGGGCCACAGCAGAAGCGUUCACGUCGCAGCCCCUGUCAGAUUCUGGUGAAUCUGCGAAUGCUGCUGUAUAUCUC [A3G U67G] | 0.37
UAUCAGGGGGCCACUGCAGAAGCGUUCACGUCGCAGCCCCUGUCAGAUUCUGGUGAAUCUGCGAAUUCUGCUGUAUAUCUC [A3U A15U] | 1.06
UAUCAGGGGGCCACGGCAGAAGCGUUCACGUCGCAGCCCCUGUCAGAUUCUGGUGAAUCUGCGAAUUCUGCUGUAUAUCUC [A3U A15G] | 0.83
UAUCAGGGGGCCACAGCAGAAGCGUUCACGUCGCUGCCCCUGUCAGAUUCUGGUGAAUCUGCGAAUUCUGCUGUAUAUCUC [A3U A35U] | 0.77
UAUCAGGGGGCCACAGCAGAAGCGUUCACGUCGCGGCCCCUGUCAGAUUCUGGUGAAUCUGCGAAUUCUGCUGUAUAUCUC [A3U A35G] | 1.28
UAUCAGGGGGCCACAGCAGAAGCGUUCACGUCGCAGCCCCUGUCAGAUUCUGGUGAAUCUGCGUAUUCUGCUGUAUAUCUC [A3U A64U] | 0.69
UAUCAGGGGGCCACAGCAGAAGCGUUCACGUCGCAGCCCCUGUCAGAUUCUGGUGAAUCUGCGGAUUCUGCUGUAUAUCUC [A3U A64G] | 1.06
UAGCAGGGGGCCACAGCAGAAGCGUUCACGUCGCAGCCCCUGUCAGAUUCUGGUGAAUCUGCGAAUUCUGCAGUAUAUCUC [A3G U72A] | 0.7
UAGCAGGGGGCCACAGCAGAAGCGUUCACGUCGCAGCCCCUGUCAGAUUCUGGUGAAUCUGCGAAUUCUGCGGUAUAUCUC [A3G U72G] | 1.07
UAGCAGGGGGCCACAGCAGAAGCGUUCACGUCGCAGCCCCUGUCAGAUUCUGGUGAAUCUGCGAAUUCUGCCGUAUAUCUC [A3G U72C] | 1.09
UAUCAGGGGGCCACAGCGGAAGCGUUCACGUCGCAGCCCCUGUCAGAUUCUGGUGAAUCUGCGAAUUCUGCUGUAUAUCUC [A3U A18G] | 0.8
UAUCAGGGGGCCACAGCUGAAGCGUUCACGUCGCAGCCCCUGUCAGAUUCUGGUGAAUCUGCGAAUUCUGCUGUAUAUCUC [A3U A18U] | 0.56
UAUCAGGGGGCCACAGCAGAAGCGUUCACGUCGCAGCCCCUGUCAGAUUCUGGUGAAUAUGCGAAUUCUGCUGUAUAUCUC [A3U C59A] | 0.51
UAGCAGGGGGCCACAGCAGAAGCGUUCACGUCGCAGCCCCUGUCAGAUUCUGGUGAAUCUGCGAAUUCUGCUGUAUAUCCC [A3G U80C] | 1.07

Variant | self-cleavage
UAGCAGGGGGCCACAGCAGAAGCGUUCACGUCGCAGCCCCUGUCAGAUUCUGGUGAAUCUGCGAAUUCUGCUGUAUAUCAC [A3G U80A] | 1.11
UAGCAGGGGGCCACAGCAGAAGCGUUCACGUCGCAGCCCCUGUCAGAUUCUGGUGAAUCUGCGAAUUCUGCUGUAUAUCGC [A3G U80G] | 1.12
UAUCAGGGGGCCACAGCAGAAGCGUUCACGUCGCAGCCCCUGUCAGAUUCUGGUGAAUCUGCGAAUUCUGCUGUAUGUCUC [A3U A77G] | 1.04
UAUCAGGGGGCCACAGCAGAAGCGUUCACGUCGCAGCCCCUGUCAGAUUCUGGUGAAUCUGCGAAUUCUGCUGUAUUUCUC [A3U A77U] | 1.25
UAUCAGGGGGCCACAGCAGAUGCGUUCACGUCGCAGCCCCUGUCAGAUUCUGGUGAAUCUGCGAAUUCUGCUGUAUAUCUC [A3U A21U] | 0.56
UAUCAGGGGGCCACAGCAGAGGCGUUCACGUCGCAGCCCCUGUCAGAUUCUGGUGAAUCUGCGAAUUCUGCUGUAUAUCUC [A3U A21G] | 0.79
UAUCUGGGGGCCACAGCAGAAGCGUUCACGUCGCAGCCCCUGUCAGAUUCUGGUGAAUCUGCGAAUUCUGCUGUAUAUCUC [A3U A5U] | 1.18
UAUCGGGGGGCCACAGCAGAAGCGUUCACGUCGCAGCCCCUGUCAGAUUCUGGUGAAUCUGCGAAUUCUGCUGUAUAUCUC [A3U A5G] | 0.79
UAGCAGGGGGCCACAGCAGAAGCGUUCACGUCGCAGCCCCUGUCAGAUUCUGGUGAAUCUGCGAAUUCCGCUGUAUAUCUC [A3G U69C] | 0.6
UAGCAGGGGGCCACAGCAGAAGCGUUCACGUCGCAGCCCCUGUCAGAUUCUGGUGAAUCUGCGAAUUCGGCUGUAUAUCUC [A3G U69G] | 0.76
UAGCAGGGGGCCACAGCAGAAGCGUUCACGUCGCAGCCCCUGUCAGAUUCUGGUGAAUCUGCGAAUUCAGCUGUAUAUCUC [A3G U69A] | 0.69
UAUCAGGGGGCCACAGCAGCAGCGUUCACGUCGCAGCCCCUGUCAGAUUCUGGUGAAUCUGCGAAUUCUGCUGUAUAUCUC [A3U A20C] | 0.21
UAUCAGGGGGCCACAGCAGUAGCGUUCACGUCGCAGCCCCUGUCAGAUUCUGGUGAAUCUGCGAAUUCUGCUGUAUAUCUC [A3U A20U] | 0.45
UAUCAGGGGGCCACAGCAGGAGCGUUCACGUCGCAGCCCCUGUCAGAUUCUGGUGAAUCUGCGAAUUCUGCUGUAUAUCUC [A3U A20G] | 0.94
UAUCAGGGGGCCACAGCAGAAGCGUUCACGUCGCAGCCCCUGUCUGAUUCUGGUGAAUCUGCGAAUUCUGCUGUAUAUCUC [A3U A45U] | 0.73
UAUCAGGGGGCCACAGCAGAAGCGUUCACGUCGCAGCCCCUGUCGGAUUCUGGUGAAUCUGCGAAUUCUGCUGUAUAUCUC [A3U A45G] | 1.03
UAUCAGGGGGCCACAGCAGAAGCGUUCACGUCGCAGCCCCUGUCAGGUUCUGGUGAAUCUGCGAAUUCUGCUGUAUAUCUC [A3U A47G] | 1.17
UAUCAGGGGGCCACAGCAGAAGCGUUCACGUCGCAGCCCCUGUCAGUUUCUGGUGAAUCUGCGAAUUCUGCUGUAUAUCUC [A3U A47U] | 0.71
UAUCAGGGGGCCACAGCAGAAGCGUUCACGUCGCAGCCCCUGUCAGCUUCUGGUGAAUCUGCGAAUUCUGCUGUAUAUCUC [A3U A47C] | 0.69
UAUCAGGGGGCCACAGCAGAAGCGUUCAUGUCGCAGCCCCUGUCAGAUUCUGGUGAAUCUGCGAAUUCUGCUGUAUAUCUC [A3U C29U] | 0.71
UAUCAGGGGGCCGCAGCAGAAGCGUUCACGUCGCAGCCCCUGUCAGAUUCUGGUGAAUCUGCGAAUUCUGCUGUAUAUCUC [A3U A13G] | 0.89
UAUCAGGGGGCCCCAGCAGAAGCGUUCACGUCGCAGCCCCUGUCAGAUUCUGGUGAAUCUGCGAAUUCUGCUGUAUAUCUC [A3U A13C] | 0.96
UAUCAGGGGGCCUCAGCAGAAGCGUUCACGUCGCAGCCCCUGUCAGAUUCUGGUGAAUCUGCGAAUUCUGCUGUAUAUCUC [A3U A13U] | 1.16

Variant | self-cleavage
UAUCAGGGGGCCACAGCAGAAGCGUUCACGUCGCAGCCCCUGUCAGAUUCUGGUGGAUCUGCGAAUUCUGCUGUAUAUCUC [A3U A56G] | 0.63
UAUCAGGGGGCCACAGCAGAAGCGUUCACGUCGCAGCCCCUGUCAGAUUCUGGUGAAUCUGCGAGUUCUGCUGUAUAUCUC [A3U A65G] | 0.54
UAUCAGGGGGCCACAGCAGAAGCGUUCACGUCGCAGCCCCUGUCAGAUUCUGGUGAAUCUGCGAUUUCUGCUGUAUAUCUC [A3U A65U] | 0.14
UAUCAGGGGGCCACAGCAGAAGCGUUCACGUCGCAGCCCCUGUCAGAUUCUGGUGAUUCUGCGAAUUCUGCUGUAUAUCUC [A3U A57U] | 0.85
UAUCAGGGGGCCACAGCAGAAGCGUUCACGUCGCAGCCCCUGUCAGAUUCUGGUGAGUCUGCGAAUUCUGCUGUAUAUCUC [A3U A57G] | 1.04
UAUCAGGGGGCCACAGCAGAAGCGUUCACGUCGCAGCCCCUGUUAGAUUCUGGUGAAUCUGCGAAUUCUGCUGUAUAUCUC [A3U C44U] | 0.73
UAUCAGGGGGCCACAGCAGAAGCGUUCACGUGGCAGCCCCUGUCAGAUUCUGGUGAAUCUGCGAAUUCUGCUGUAUAUCUC [A3U C32G] | 0.47
UAUCAGGGGGCCACAGCAGAAGCGUUCACGUCGCAGCCCAUGUCAGAUUCUGGUGAAUCUGCGAAUUCUGCUGUAUAUCUC [A3U C40A] | 0.54
UAGCAGGGGGCCACAGCAGAAGCGUUCACGUCGCAGCCCCUGUCAGAUUCUGGUGAAUCUGCGAAUUCUGCUGUAUAACUC [A3G U78A] | 1.17
UAGCAGGGGGCCACAGCAGAAGCGUUCACGUCGCAGCCCCUGUCAGAUUCUGGUGAAUCUGCGAAUUCUGCUGUAUACCUC [A3G U78C] | 0.99
UAUCAGGGGGGCACAGCAGAAGCGUUCACGUCGCAGCCCCUGUCAGAUUCUGGUGAAUCUGCGAAUUCUGCUGUAUAUCUC [A3U C11G] | 0.4
UAUCAGGGGGCAACAGCAGAAGCGUUCACGUCGCAGCCCCUGUCAGAUUCUGGUGAAUCUGCGAAUUCUGCUGUAUAUCUC [A3U C12A] | 1.14
UAUCAGGGGGCCACAGCAGAAGCGUUCACGUCGCAGCGCCUGUCAGAUUCUGGUGAAUCUGCGAAUUCUGCUGUAUAUCUC [A3U C38G] | 0.31
UAUCAGGGGGCCACAGCAGAAGCGUUCACGUCGCAGCUCCUGUCAGAUUCUGGUGAAUCUGCGAAUUCUGCUGUAUAUCUC [A3U C38U] | 0.97
UAUCAGGGGGCCACAGCAGAAGCGUUCUCGUCGCAGCCCCUGUCAGAUUCUGGUGAAUCUGCGAAUUCUGCUGUAUAUCUC [A3U A28U] | 1.13
UAUCAGGGGGCCACAGCAGAAGCGUUCGCGUCGCAGCCCCUGUCAGAUUCUGGUGAAUCUGCGAAUUCUGCUGUAUAUCUC [A3U A28G] | 0.88
UAUCAGGGGGCCACAGCAGAAGCGUUCCCGUCGCAGCCCCUGUCAGAUUCUGGUGAAUCUGCGAAUUCUGCUGUAUAUCUC [A3U A28C] | 0.91
UAGCAGGGGGCCACAGCAGAAGCGUUCACGUCGCAGCCCCUGUCAGAUUCUGGUGAAUCUGCGAAUUCUGCUGCAUAUCUC [A3G U74C] | 1.16
UAGCAGGGGGCCACAGCAGAAGCGUUCACGUCGCAGCCCCUGUCAGAUUCUGGUGAAUCUGCGAAUUCUGCUGGAUAUCUC [A3G U74G] | 1.24
UAGCAGGGGGCCACAGCAGAAGCGUUCACGUCGCAGCCCCUGUCAGAUUCUGGUGAAUCUGCGAAUUCUGCUGAAUAUCUC [A3G U74A] | 1.22
UAUCAGGGGGCCACAGCAGAAGCGUUUACGUCGCAGCCCCUGUCAGAUUCUGGUGAAUCUGCGAAUUCUGCUGUAUAUCUC [A3U C27U] | 0.6
UAUCAGGGGGCCACAGCAGAAGCGUUCACGUCGUAGCCCCUGUCAGAUUCUGGUGAAUCUGCGAAUUCUGCUGUAUAUCUC [A3U C34U] | 0.51
